The record followed here is IntAct's records for PubMed 20596027.

B1: Centriolar coiled-coil protein of 110 kDa (Homo sapiens), O43303-2 (parent)
chain: MEEYEKFCEKSLARIQEASLSTESFLPAQSESISLIRFHGVAILSPLLNIEKRKEMQQEKQKALDVEARKQVNRKKALLTRVQEILDNVQVRKAPNASDFDQWEMETVYSNSEVRNLNVPATFPNSFPSHTEHSTAAKLDKIAGILPLDNEDQCKTDGIDLARDSEGFNSPKQCDSSNISHVENEAFPKTSSATPQETLISDGPFSVNEQQDLPLLAEVIPDPYVMSLQNLMKKSKEYIEREQSRRSLRGSINRIVNESHLDKEHDAVEVADCVKEKGQLTGKHCVSVIPDKPSLNKSNVLLQGASTQASSMSMPVLASFSKVDIPIRTGHPTVLESNSDFKVIPTFVTENNVIKSLTGSYAKLPSPEPSMSPKMHRRRSRTSSACHILINNPINACELSPKGKEQAMDLIIQDTDENTNVPEIMPKLPTDLAGVCSSKVYVGKNTSEVKEDVVLGKSNQVCQSSGNHLENKVTHGLVTVEGQLTSDERGAHIMNSTCAAMPKLHEPYASSQCIASPNFGTVSGLKPASMLEKNCSLQTELNKSYDVKNPSPLLMQNQNTRQQMDTPMVSCGNEQFLDNSFEKVKRRLDLDIDGLQKENCPYVITSGITEQERQHLPEKRYPKGSGFVNKNKMLGTSSKESEELLKSKMLAFEEMRKRLEEQHAQQLSLLIAEQEREQERLQKEIEEQEKMLKEKKAMTAEASELDINNAVELEWRKISDSSLLETMLSQADSLHTSNSNSSGFTNSAMQYSFVSANEAPFYLWGSSTSGLTKLSVTRPFGRAKTRWSQVFSLEIQAKFNKITAVAKGFLTRRLMQTDKLKQLRQTVKDTMEFIRSFQSEAPLKRGIVSAQDASLQERVLAQLRAALYGIHDIFFVMDAAERMSILHHDREVRKEKMLRQMDKMKSPRVALSAATQKSLDRKKYMKAAEMGMPNKKFLVKQNPSETRVLQPNQGQNAPVHRLLSRQGSICRKNPKKAAKCCDNLRRQHSLG
partner: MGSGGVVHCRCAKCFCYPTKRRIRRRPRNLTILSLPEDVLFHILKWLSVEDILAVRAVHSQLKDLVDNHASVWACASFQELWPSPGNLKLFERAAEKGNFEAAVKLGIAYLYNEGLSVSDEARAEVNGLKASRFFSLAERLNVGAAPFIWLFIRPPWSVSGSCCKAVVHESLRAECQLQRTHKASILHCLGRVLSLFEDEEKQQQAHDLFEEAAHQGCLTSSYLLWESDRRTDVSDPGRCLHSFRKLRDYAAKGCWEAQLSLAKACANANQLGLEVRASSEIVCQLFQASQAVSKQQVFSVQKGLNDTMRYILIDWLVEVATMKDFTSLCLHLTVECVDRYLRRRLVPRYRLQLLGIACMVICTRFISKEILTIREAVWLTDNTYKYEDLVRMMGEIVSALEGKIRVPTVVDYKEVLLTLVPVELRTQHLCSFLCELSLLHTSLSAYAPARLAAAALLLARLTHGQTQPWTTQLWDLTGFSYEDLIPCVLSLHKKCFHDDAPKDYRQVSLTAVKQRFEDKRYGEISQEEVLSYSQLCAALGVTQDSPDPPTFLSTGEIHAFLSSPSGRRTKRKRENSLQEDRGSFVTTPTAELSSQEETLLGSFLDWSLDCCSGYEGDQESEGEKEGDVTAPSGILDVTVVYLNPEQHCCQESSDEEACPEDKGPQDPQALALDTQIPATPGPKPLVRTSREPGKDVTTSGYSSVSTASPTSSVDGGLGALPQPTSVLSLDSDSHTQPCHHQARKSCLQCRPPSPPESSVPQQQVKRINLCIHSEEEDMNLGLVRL
B2: Cyclin-F (Homo sapiens), P41002 (parent)
chain: B1 partner

One test covers variants of B1. Particulars: with ccnf_human CCNF.
On to L588A;L590A, for which the “effect of a mutation on the interaction” value is “disrupting interaction”.

The variants in the next test derive from B2. The following applies: with cp110_human CCP110, O43303.
For the variant M309A;L313A, the “effect of a mutation on the interaction” value is reported as “disrupting interaction”.

The variants in a further test derive from B2. Particulars: with cul1_human CUL1, Q13616.
Chain of cul1_human CUL1, Q13616 (Q13616 whole entry): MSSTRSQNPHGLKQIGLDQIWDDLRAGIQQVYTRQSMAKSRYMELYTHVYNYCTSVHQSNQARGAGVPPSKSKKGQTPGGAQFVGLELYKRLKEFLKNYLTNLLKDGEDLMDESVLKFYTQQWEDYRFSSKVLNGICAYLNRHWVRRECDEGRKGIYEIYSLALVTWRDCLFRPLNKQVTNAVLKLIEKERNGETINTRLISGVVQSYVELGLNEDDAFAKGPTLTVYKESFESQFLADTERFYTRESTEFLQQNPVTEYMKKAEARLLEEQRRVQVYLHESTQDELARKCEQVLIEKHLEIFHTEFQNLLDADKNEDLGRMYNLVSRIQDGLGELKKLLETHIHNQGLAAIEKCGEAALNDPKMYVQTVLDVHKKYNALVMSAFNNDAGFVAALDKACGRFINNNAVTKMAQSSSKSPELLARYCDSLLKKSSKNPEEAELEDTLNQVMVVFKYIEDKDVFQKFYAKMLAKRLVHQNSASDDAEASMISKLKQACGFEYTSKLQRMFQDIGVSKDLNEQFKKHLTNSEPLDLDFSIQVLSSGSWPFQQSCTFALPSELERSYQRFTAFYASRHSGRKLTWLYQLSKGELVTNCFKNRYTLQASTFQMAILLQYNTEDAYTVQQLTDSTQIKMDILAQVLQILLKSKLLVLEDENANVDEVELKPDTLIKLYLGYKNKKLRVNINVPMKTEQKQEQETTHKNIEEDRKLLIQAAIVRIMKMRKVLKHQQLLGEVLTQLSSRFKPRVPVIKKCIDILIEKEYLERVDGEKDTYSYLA
Turning to L35A;P36A, the “effect of a mutation on the interaction” value is given as “disrupting interaction”.
